Experimental data as given in US6897054.

T1: myc-tagged H37 protein
T1 chain: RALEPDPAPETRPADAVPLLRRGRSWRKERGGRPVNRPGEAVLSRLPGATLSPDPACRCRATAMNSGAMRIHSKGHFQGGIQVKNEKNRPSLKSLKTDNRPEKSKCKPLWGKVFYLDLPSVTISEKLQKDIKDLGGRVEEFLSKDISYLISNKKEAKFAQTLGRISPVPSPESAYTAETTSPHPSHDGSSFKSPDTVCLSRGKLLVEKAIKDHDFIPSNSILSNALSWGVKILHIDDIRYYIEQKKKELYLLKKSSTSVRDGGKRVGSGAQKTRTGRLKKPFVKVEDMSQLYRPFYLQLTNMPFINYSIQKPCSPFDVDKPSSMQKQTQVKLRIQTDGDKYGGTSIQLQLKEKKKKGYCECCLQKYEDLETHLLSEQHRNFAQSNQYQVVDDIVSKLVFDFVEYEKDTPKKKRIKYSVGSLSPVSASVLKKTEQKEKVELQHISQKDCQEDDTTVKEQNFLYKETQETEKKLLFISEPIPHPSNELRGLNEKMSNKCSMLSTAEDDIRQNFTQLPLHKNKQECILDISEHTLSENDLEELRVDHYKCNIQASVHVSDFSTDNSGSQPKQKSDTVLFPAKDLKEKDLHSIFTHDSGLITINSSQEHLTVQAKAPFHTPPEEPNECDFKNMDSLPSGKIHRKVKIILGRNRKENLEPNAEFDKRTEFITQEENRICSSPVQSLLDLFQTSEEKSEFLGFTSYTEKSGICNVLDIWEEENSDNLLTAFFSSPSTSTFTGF


Columns and labels:
[1] = target: T1, myc-tagged H37 protein
[2] = target: huCdc7 fused to DNA-binding domain of Gal4 (human); test: yeast two-hybrid assay, lacZ activity

Binder	in vitro kinase reaction of huCdc7/H37 immunoprecipitates with GST-MCM3 fusion protein as substrate [1]	binding ability with huCdc7 relative to full-length H37 [2] [%]
huCdc7 (protein) MEASLGIQMDEPMAFSPQRDRFQAEGSLKKNEQNFKLAGVKKDIEKLYEAVPQLSNVFKIEDKIGEGTFSSVYLATAQLQVGPEEKIALKHLIPTSHPIRIAAELQCLTVAGGQDNVMGVKYCFRKNDHVVIAMPYLEHESFLDILNSLSFQEVREYMLNLFKALKRIHQFGIVHRDVKPSNFLYNRRLKKYALVDFGLAQGTHDTKIELLKFVQSEAQQERCSQNKSHIITGNKIPLSGPVPKELDQQSTTKASVKRPYTNAQIQIKQGKDGKEGSVGLSVQRSVFGERNFNIHSSISHESPAVKLMKQSKTVDVLSRKLATKKKAISTKVMNSAVMRKTASSCPASLTCDCYATDKVCSICLSRRQQVAPRAGTPGFRAPEVLTKCPNQTTAIDMWSAGVIFLSLLSGRYPFYKASDDLTALAQIMTIRGSRETIQAAKTFGKSILCSKEVPAQDLRKLCERLRGMDSSTPKLTSDIQGHASHQPAISEKTDHKASCLVQTPPGQYSGNSFKKGDSNSCEHCFDEYNTNLEGWNEVPDEAYDLLDKLLDLNPASRITAEEALLHPFFKDMSL	phosphorylation in a good efficiency was observed for the MCM3 protein in both immunoprecipitate of anti-huCdc7 antibody and immunoprecipitate of anti-myc antibody	
H37 deletion derivative ΔC fused to Gal4 activation domain (protein, not shown: large carriers) MNSGAMRIHSKGHFQGGIQVKNEKNRPSLKSLKTDNRPEKSKCKPLWGKVFYLDLPSVTISEKLQKDIKDLGGRVEEFLSKDISYLISNKKEAKFAQTLGRISPVPSPESAYTAETTSPHPSHDGSSFKSPDTVCLSRGKLLVEKAIKDHDFIPSNSILSNALSWGVKILHIDDIRYYIEQKKKELYLLKKSSTSVRDGGKRVGSGAQKTRTGRLKKPFVKVEDMSQLYRPFYLQLTNMPFINYSIQKPCSPFDVDKPSSMQKQTQVKLRIQTDGDKYGGTSIQLQLKEKKKKGYCECCLQKYEDLETHLLSEQHRNFAQSNQYQVVDDIVSKLVFDFVEYEKDTPKKKRIKYSVGSLSPVSASVLKKTEQKEKVELQHISQKDCQEDDTTVKEQNFLYKETQETEKKLLFISEPIPHPSNELRGLNEKMSNKCSMLSTAEDDIRQNFTQLPLHKNKQECILDISEHTLSENDLEELRVDHYKCNIQASVHVSDFSTDNSGSQPKQKSDTVLFPAKDLKEKDLHSIFTHDSGLITINSSQEHLTVQAKAPFHTPPEEPNECDFKNMDSLPSGKIHRKVKIILGRNRKENLEPNAEFDKRTEFITQEENRICSSPVQSLLDLFQTSEEKSEFLGFTSYTEKSGICNVLDIWEEEN		60
